Test results: patent US20240310383A1, “Proteomic Risk Score For Osteoarthritis (OA)” (Regeneron Pharmaceuticals, Inc., priority 2023, published 2024)

Test system: patients with pain due to osteoarthritis of the knee or hip
Assay: WOMAC pain and functional score improvement in R475-OA-1688 clinical trial, stratified by OA proteomic risk score groups
Assay type: in vivo, human

B1: fasinumab (antibody, chains of the INN, looked up, V domains shown)
VH: QVQLVQSGAEVKKPGASVKVSCKVSGFTLTELSIHWVRQAPGKGLEWMGGFDPEDGETIYAQKFQGRVTMTEDTSTDTAYMELTSLRSEDTAVYYCSTIFGVVTNFDNWGQGTLVTVSS
VL: DIQMTQSPSSLSASAGDRVTITCRASQAIRNDLGWYQQKPGKAPKRLIYAAFNLQSGVPSRFSGSGSGTEFTLTISSLQPEDLASYYCQQYNRYPWTFGQGTKVEIK
notes: anti-NGF antibody (NGF antagonist) tested in phase 3 study R475-OA-1688
efficacy compared with both NSAIDs or placebo treated patients (Fasinumab 1q4w, OA proteomic score high risk group): has efficacy benefits
efficacy compared with either NSAIDs or placebo (fasinumab 1q4w, patients in 1st to 3rd OA proteomic score quartiles): maintains efficacy superiority
efficacy profile (both WOMAC pain and WOMAC functional scores) (patients in 1st to 3rd OA proteomic score quartiles, fasinumab 1q4w, FIG. 9 and FIG. 10): better efficacy profile
